Assay results from doi:10.1101/813527.

What was measured:
[1] = target: GFP-S14D S26D-SAP (phosphomimetic SAF-A SAP domain) (UniProt Q00839); assay: EMSA
[2] = target: GFP-WT-SAP (SAF-A SAP domain) (UniProt Q00839); assay: EMSA

AATTCAGAAAATAATAAAATAAAACTAGCTATTTTATATTTTTTC (double strand) [AT-rich SAR DNA]
Kd [1]: > 75 µM
Kd [2]: 16.5 µM
